These sequences were tested on F1*sub RNA substrate (template-directed ligation) (assay: fraction ligated after 30 min (ligated reads / total reads); higher = more ligase activity; sequences stand for … in GAGACCGCAACTGAAAAGTTGT…AGTTCTGCACGTAGAAGCAAAAGGC). Settings: 42 °C.
In short: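 Ligase ribozyme variants were made from oligo-pool templates by PCR amplification, T7 transcription and gel purification. After gel separation, ligated and unligated bands were reverse transcribed with barcoded primers and sequenced on a MiSeq, with core bases filtered at quality ≥20. The fraction ligated for each variant was the number of ligated reads divided by total reads.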

Sequence | fraction ligated
TTCACTTGTCTAAGCACTTTGGATGGGTTGA [3d405] | 0.67
TTCACTGTCGTAAACACTTTGGATGGGTTGA [3d343] | 0.8
TATCATTGTCGAAGACACTTTGGATGGTTGA [3d1211] | 0.21
TATACTTGTCGTAAGACATTTGGAGGGTTGA [3d921] | 0.0163
TATCACTTGTTAGACACTTTGGATGGGTTGA [3d1705] | 0.842
TATACGTCGTAAGACACTTTGGATGGGTTGA [3d777] | 0.735
TATCACTGTCGTAAACACTTTGGATGGGTTG [3d1407] | 0.83
TATCACTTGTCGTAAAACTTTGGAGGGTTGA [3d2063] | 0.0898
TATCACTTGTCGTAAGCATTGGATGGGTTGA [3d2121] | 0.756
TATCACTTGTCGTAAAATTTGGATGGGTTGA [3d2059] | 0.803
TACACTTGTCGTAAGACACTTTGATGGGTTGA [2d63] | 0.194
TATACTTGTCGTAAGACACTTGGAGGGTTGA [3d928] | 0.0325
TTCACTTGCGTAAGACCTTTGGATGGGTTGA [3d378] | 0.311
TACACTTGTCGTAAGACACTTTGGTGGGTTG [3d730] | 0.035
ATACTGTCGTAAGACACTTTGGATGGGTTGA [3d48] | 0.361
ATCATTGTCGTAAGACACTTTGGATGGTTGA [3d102] | 0.482
TATCACTTGTCGTAAGACACTTTGAGGGTTGA [2d285] | 0.00683
TATCACTTGTCAAGACACTTTGGATGGTTGA [3d1820] | 0.288
TATCACTTGTCGTAGACATTTGGTGGGTTGA [3d2030] | 0.0449

Sequence | fraction ligated
TACACTTGTCGTAAGACTTTGGATGGGTTGA [3d682] | 0.409
TATACTTGTCTAAGACACTTTGGATGGTTGA [3d854] | 0.0769
TATCCTTGCGTAAGACACTTTGGATGGGTTA [3d998] | 0.403
TATCACTTGTCGTAAGACACTTTGGAGGTTG [3d2278] | 0.00797
TATCACTGTCGTAAACACTTTGGTGGGTTGA [3d1403] | 0.086
TTCACTTGTCGTAAGAACTTTGATGGGTTGA [3d464] | 0.119
TATCACTTGTCTGACACTTTGGATGGGTTGA [3d1823] | 0.77
TATCTTGTCTAAGACACTTTGGATGGGTTGA [3d743] | 0.742
TATCCTTGTCGAAGAACTTTGGATGGGTTGA [3d1032] | 0.772
TATACTTTCGTAAGAACTTTGGATGGGTTGA [3d802] | 0.778
ACACTTTCGTAAGACACTTTGGATGGGTTGA [3d28] | 0.0846
TATCCTGTCGTAAGACACTTTGGTGGGTTGA [3d963] | 0.274
TACCTTGTCGAAGACACTTTGGATGGGTTGA [3d533] | 0.676
TATCACTTGGTAAGACACTTTGGATGGGTTG [3d1598] | 0.809
TATCACTTGTCGAAGAACTTGGATGGGTTGA [3d1936] | 0.794
TATCACTTGTCGTAAGCATTTGGATGGGTTA [3d2126] | 0.784
TTCACTTGTCGTAAACACTTTGGTGGGTTGA [3d447] | 0.0202
TATCACTGTCGTAAGAACTTTGGTGGGTTGA [3d1421] | 0.079
ATCATTGTCGTAAGACACTTTGGAGGGTTGA [3d101] | 0.12

Sequence | fraction ligated
TATCTTGTCGTAAGAACTTTGGATGGGTTGA [3d748] | 0.841
TATCACTTGTCTAAGACACTGGATGGGTTGA [3d1878] | 0.787
TTCACTTGTCGTAAGACACTTTGATGGTTGA [3d494] | 0.0545
TTCACTTGTCGTAAGCACTTTGGTGGGTTGA [3d457] | 0.0197
TATCACTTGTCTAAGACCTTTGGATGGTTGA [3d1868] | 0.269
TATCACTTGTCGTAAACATTTGGATGGTTGA [3d2078] | 0.15
TTCACTTGTGTAAGACACTTTGGATGGGTTG [3d401] | 0.726
TATCATGTCGTAAGAACTTTGGATGGGTTGA [3d1130] | 0.848
TATCACTTTCGTAAGCACTTTGGAGGGTTGA [3d1535] | 0.03
ATCACTTGTCGAAGACACTTTGGAGGGTTGA [3d194] | 0.128
ATCATTGTCTAAGACACTTTGGATGGGTTGA [3d90] | 0.663
TATACTTGTCGTAAGACACTTTGATGGGTTG [3d937] | 0.537
TTCACTTGGTAAGACACTTTGGATGGGTTGA [3d371] | 0.708
ATCACTTGTCGTAAGACACTTTGGTGGGTTGA [2d20] | 0.0391
TACACTTGTCGAAGACACTTTGGATGGGTTGA [2d55] | 0.603
ATCCTTGTCGAAGACACTTTGGATGGGTTGA [3d72] | 0.773
TTCATTGCGTAAGACACTTTGGATGGGTTGA [3d319] | 0.11
TATCACTTGTCTAAGACATTTGGATGGGTTG [3d1877] | 0.824

— the supplement of paper PMC6755084
